Results: patent publication US20220073613A1 (XILIO DEVELOPMENT, published 2022)
Substitutions are numbered along the chain they refer to. Names and notes keep the numbering of the source.

B1: Antibody 2-10 (antibody, human IgG1, kappa)
light: ACPFPALELCGGGSSGGSGGSGGSGSGGEIVLTQSPDFQSVTPKEKVTITCSANSALSYMYWYQQKPDQSPKLWVHGTSNLASGVPSRFSGSGSGTDFTLTINSLEAEDAATYYCHHWSNTQWTFGGGTKVEIKRTVAAPSVFIFPPSDEQLKSGTASVVCLLNNFYPREAKVQWKVDNALQSGNSQESVTEQDSKDSTYSLSSTLTLSKADYEKHKVYACEVTHQGLSSPVTKSFNRGEC
heavy: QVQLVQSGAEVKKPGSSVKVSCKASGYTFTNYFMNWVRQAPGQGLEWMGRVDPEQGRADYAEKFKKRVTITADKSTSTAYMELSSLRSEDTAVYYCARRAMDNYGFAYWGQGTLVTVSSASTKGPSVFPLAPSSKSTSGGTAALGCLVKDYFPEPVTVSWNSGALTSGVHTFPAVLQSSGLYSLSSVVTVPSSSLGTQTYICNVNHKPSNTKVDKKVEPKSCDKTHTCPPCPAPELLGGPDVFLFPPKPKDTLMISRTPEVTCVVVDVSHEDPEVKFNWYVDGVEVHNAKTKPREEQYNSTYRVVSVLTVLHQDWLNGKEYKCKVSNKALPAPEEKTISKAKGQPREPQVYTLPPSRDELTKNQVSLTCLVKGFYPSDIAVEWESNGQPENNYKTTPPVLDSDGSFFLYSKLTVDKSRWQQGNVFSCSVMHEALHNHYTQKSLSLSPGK
notes: also called non-cleavable masked Antibody 2-10
B2: Antibody 2-15 (antibody, human IgG1, kappa)
light: B1 light with F4G, P5K, A6G, E8P, L9S
heavy: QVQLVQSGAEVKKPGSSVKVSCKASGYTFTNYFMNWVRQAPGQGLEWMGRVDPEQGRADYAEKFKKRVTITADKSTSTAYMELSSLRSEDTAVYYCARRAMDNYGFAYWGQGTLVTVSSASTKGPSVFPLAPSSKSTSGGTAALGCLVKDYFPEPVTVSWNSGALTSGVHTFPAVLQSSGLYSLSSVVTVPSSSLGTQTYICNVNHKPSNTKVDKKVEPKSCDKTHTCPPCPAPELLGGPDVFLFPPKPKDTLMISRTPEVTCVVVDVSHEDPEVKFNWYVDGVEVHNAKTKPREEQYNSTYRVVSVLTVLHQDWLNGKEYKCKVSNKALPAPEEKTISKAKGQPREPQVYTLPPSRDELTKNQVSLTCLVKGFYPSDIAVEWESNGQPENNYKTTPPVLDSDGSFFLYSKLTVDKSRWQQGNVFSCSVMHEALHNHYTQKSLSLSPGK
B3: Antibody 2-14 (antibody, human IgG1, kappa)
light: ACPGKGLPSCGGGSSGGSGVPLSLYSGGEIVLTQSPDFQSVTPKEKVTITCSANSALSYMYWYQQKPDQSPKLWVHGTSNLASGVPSRFSGSGSGTDFTLTINSLEAEDAATYYCHHWSNTQWTFGGGTKVEIKRTVAAPSVFIFPPSDEQLKSGTASVVCLLNNFYPREAKVQWKVDNALQSGNSQESVTEQDSKDSTYSLSSTLTLSKADYEKHKVYACEVTHQGLSSPVTKSFNRGEC
heavy: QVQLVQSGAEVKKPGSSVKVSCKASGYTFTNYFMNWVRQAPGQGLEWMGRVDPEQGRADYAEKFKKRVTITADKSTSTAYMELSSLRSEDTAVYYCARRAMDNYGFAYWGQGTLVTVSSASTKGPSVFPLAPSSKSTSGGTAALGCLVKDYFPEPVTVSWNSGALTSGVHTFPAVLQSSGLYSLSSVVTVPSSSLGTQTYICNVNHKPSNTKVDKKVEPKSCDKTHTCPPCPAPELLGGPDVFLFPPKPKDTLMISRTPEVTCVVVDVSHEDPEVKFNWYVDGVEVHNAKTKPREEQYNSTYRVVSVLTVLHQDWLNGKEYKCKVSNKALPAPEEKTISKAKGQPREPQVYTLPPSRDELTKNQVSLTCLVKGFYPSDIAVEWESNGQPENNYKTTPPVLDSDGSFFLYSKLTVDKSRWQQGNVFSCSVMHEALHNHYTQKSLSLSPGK
B4: Antibody 2-16 (antibody, human IgG1, kappa)
light: ACPFPALELCSSGGSGPDSGGFMLTSGGEIVLTQSPDFQSVTPKEKVTITCSANSALSYMYWYQQKPDQSPKLWVHGTSNLASGVPSRFSGSGSGTDFTLTINSLEAEDAATYYCHHWSNTQWTFGGGTKVEIKRTVAAPSVFIFPPSDEQLKSGTASVVCLLNNFYPREAKVQWKVDNALQSGNSQESVTEQDSKDSTYSLSSTLTLSKADYEKHKVYACEVTHQGLSSPVTKSFNRGEC
heavy: not shown
B5: Antibody 2-16 (colon tumor) (antibody)
heavy chain: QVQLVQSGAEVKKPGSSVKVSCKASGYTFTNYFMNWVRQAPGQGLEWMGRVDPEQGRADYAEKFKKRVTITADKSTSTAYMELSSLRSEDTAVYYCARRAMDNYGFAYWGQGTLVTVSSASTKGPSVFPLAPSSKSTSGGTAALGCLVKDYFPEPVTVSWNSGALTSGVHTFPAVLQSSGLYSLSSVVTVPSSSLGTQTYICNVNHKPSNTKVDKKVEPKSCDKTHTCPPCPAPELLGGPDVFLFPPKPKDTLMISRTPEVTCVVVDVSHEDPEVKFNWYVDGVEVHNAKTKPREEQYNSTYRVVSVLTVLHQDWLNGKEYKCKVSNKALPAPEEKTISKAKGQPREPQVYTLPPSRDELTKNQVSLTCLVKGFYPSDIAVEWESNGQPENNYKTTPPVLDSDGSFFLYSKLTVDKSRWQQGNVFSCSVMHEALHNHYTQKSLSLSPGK
light chain with masking components, cleaved: SGGEIVLTQSPDFQSVTPKEKVTITCSANSALSYMYWYQQKPDQSPKLWVHGTSNLASGVPSRFSGSGSGTDFTLTINSLEAEDAATYYCHHWSNTQWTFGGGTKVEIKRTVAAPSVFIFPPSDEQLKSGTASVVCLLNNFYPREAKVQWKVDNALQSGNSQESVTEQDSKDSTYSLSSTLTLSKADYEKHKVYACEVTHQGLSSPVTKSFNRGEC
notes: also called Antibody 2-16 after culture in colon tumor conditioned media (colon2 4 sept colon tumor sample)
B6: Antibody 2-7 (antibody, human IgG1, kappa)
light: ACPFPALELCGGSGGSVPLSLYSGGEIVLTQSPDFQSVTPKEKVTITCSANSALSYMYWYQQKPDQSPKLWVHGTSNLASGVPSRFSGSGSGTDFTLTINSLEAEDAATYYCHHWSNTQWTFGGGTKVEIKRTVAAPSVFIFPPSDEQLKSGTASVVCLLNNFYPREAKVQWKVDNALQSGNSQESVTEQDSKDSTYSLSSTLTLSKADYEKHKVYACEVTHQGLSSPVTKSFNRGEC
heavy: not shown
B7: Antibody 2-14, activated by protease (antibody)
light: EIVLTQSPDFQSVTPKEKVTITCSANSALSYMYWYQQKPDQSPKLWVHGTSNLASGVPSRFSGSGSGTDFTLTINSLEAEDAATYYCHHWSNTQWTFGGGTKVEIKRTVAAPSVFIFPPSDEQLKSGTASVVCLLNNFYPREAKVQWKVDNALQSGNSQESVTEQDSKDSTYSLSSTLTLSKADYEKHKVYACEVTHQGLSSPVTKSFNRGEC
heavy: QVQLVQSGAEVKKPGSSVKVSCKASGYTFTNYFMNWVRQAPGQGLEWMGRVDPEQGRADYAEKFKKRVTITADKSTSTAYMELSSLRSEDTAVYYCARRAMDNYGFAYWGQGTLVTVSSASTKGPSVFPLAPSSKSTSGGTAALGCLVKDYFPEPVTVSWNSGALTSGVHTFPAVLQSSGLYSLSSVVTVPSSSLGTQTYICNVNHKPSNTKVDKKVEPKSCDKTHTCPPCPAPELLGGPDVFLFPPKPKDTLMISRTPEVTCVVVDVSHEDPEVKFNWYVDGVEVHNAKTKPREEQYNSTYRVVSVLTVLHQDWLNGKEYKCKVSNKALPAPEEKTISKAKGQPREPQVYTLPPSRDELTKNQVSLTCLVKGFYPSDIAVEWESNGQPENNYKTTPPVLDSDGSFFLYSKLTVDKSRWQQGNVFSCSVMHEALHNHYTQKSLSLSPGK
notes: also called Antibody 2-14 with protease (+); not shown: remnant of the cleaved linker (part of VPLSLY and spacer SGG)
B8: Antibody 2-13 (Activated) (antibody, not shown: small tags and cut ends)
light: B7 light
heavy: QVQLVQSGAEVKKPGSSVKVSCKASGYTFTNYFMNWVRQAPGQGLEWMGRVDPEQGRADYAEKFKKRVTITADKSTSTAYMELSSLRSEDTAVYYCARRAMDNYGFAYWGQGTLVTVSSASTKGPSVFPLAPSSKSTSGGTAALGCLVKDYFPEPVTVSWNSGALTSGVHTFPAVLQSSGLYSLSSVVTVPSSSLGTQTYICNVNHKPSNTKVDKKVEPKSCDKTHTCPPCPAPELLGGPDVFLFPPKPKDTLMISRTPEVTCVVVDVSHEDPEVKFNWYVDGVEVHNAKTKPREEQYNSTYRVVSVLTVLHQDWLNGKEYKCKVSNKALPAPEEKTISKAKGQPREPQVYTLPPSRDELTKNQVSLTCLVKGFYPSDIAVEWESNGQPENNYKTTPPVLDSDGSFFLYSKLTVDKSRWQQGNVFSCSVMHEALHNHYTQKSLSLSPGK
B9: Antibody 2-7 (Activated) (antibody)
light: B7 light
heavy: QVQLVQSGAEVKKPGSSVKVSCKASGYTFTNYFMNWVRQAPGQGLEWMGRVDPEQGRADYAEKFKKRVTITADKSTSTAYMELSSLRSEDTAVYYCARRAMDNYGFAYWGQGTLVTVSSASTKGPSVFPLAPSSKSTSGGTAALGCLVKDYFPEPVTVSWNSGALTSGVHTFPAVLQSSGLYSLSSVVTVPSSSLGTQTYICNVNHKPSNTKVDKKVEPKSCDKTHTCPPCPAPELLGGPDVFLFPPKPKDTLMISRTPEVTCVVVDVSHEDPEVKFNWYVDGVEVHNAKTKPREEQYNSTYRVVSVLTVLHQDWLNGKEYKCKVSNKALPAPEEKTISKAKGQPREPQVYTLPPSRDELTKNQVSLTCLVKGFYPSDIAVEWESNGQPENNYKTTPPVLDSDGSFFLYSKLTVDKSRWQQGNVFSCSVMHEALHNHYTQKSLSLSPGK
notes: also called Antibody 2-7 with protease; not shown: remnant of the cleaved linker (part of VPLSLY and spacer SGG)
B10: parental anti-CTLA4 antibody (9D9), murine IgG2a (antibody)
light: DIVMTQTTLSLPVSLGDQASISCRSSQSIVHSNGNTYLEWYLQKPGQSPKLLIYKVSNRFSGVPDRFSGSGSGTDFTLKISRVEAEDLGVYYCFQGSHVPYTFGGGTKLEIKRADAAPTVSIFPPSSEQLTSGGASVVCFLNNFYPKDINVKWKIDGSERQNGVLNSWTDQDSKDSTYSMSSTLTLTKDEYERHNSYTCEATHKTSTSPIVKSFNRNEC
heavy: EAKLQESGPVLVKPGASVKMSCKASGYTFTDYYMNWVKQSHGKSLEWIGVINPYNGDTSYNQKFKGKATLTVDKSSSTAYMELNSLTSEDSAVYYCARYYGSWFAYWGQGTLITVSSAKTTAPSVYPLAPVCGDTTGSSVTLGCLVKGYFPEPVTLTWNSGSLSSGVHTFPAVLQSDLYTLSSSVTVTSSTWPSQSITCNVAHPASSTKVDKKIEPRGPTIKPCPPCKCPAPNLLGGPSVFIFPPKIKDVLMISLSPIVTCVVVDVSEDDPDVQISWFVNNVEVHTAQTQTHREDYNSTLRVVSALPIQHQDWMSGKEFKCKVNNKDLPAPIERTISKPKGSVRAPQVYVLPPPEEEMTKKQVTLTCMVTDFMPEDIYVEWTNNGKTELNYKNTEPVLDSDGSYFMYSKLRVEKKNWVERNSYSCSVVHEGLHNHHTTKSFSRTPGK
notes: Made at ATUM by HEK293 transient expression as murine IgG2a; reactive against murine CTLA4; also called 9D9.IgG2a; 9D9 IgG2a
B11: parental humanized anti-CTLA4 antibody 1 (antibody, human IgG1, kappa)
light: DIVMTQTPLSLSVTPGQPASISCRSSQSLLNSDGNTYLYWYLQKPGQSPQLLIYLVSKLGSGVPNRFSGSGSGTDFTLKISRVEAEDVGVYYCVQGTHDPWTFGGGTKVEIKRTVAAPSVFIFPPSDEQLKSGTASVVCLLNNFYPREAKVQWKVDNALQSGNSQESVTEQDSKDSTYSLSSTLTLSKADYEKHKVYACEVTHQGLSSPVTKSFNRGEC
heavy: not shown
notes: Humanized IgG1
B12: masking peptide CNLIVEGHC (peptide)
peptide: CNLIVEGHC
notes: Selected from the Ph.D.-C7C phage library; also called sterically occluded peptide

Experiments:
[1] = biological target: T1, human CTLA4-Fc (R&D Systems, #7268-CT) (human, UniProt P16410 36-162); assay: CTLA4 ELISA (luminescence) after culture of the non-cleavable masked antibody in RPMI as control
T1 construct: Bought; not shown: Fc part

[2] = biological target: T1, human CTLA4-Fc (R&D Systems, #7268-CT); assay: low density antigen binding ELISA, human CTLA4-Fc coated; no protease
[3] = biological target: T1, human CTLA4-Fc (R&D Systems, #7268-CT); assay: ELISA, human CTLA4-Fc coated; protease -
[4] = biological target: CTLA4 on CTLA4 expressing Jurkat cells (UniProt P16410 36-223, limits assumed); assay: cell-based or functional assay
[5] = biological target: T1, human CTLA4-Fc (R&D Systems, #7268-CT); assay: ELISA, human CTLA4-Fc coated; protease -; remark: listed apart in the source
[6] = biological target: T1, human CTLA4-Fc (R&D Systems, #7268-CT); assay: CTLA4 ELISA (luminescence) after culture of the non-cleavable masked antibody in colon tumor conditioned media
[7] = biological target: T1, human CTLA4-Fc (R&D Systems, #7268-CT); assay: ELISA, human CTLA4-Fc coated; protease +
[8] = biological target: T1, human CTLA4-Fc (R&D Systems, #7268-CT); assay: CTLA4 ELISA (luminescence) after culture of the masked antibody in RPMI as control
[9] = biological target: T2, CTLA4 coated on an MSD plate (Homo sapiens (Human), UniProt P16410 36-161); assay: binding to a CTLA4-coated MSD plate; antibody from plasma of MB49-bearing B-hCTLA4 mice 4 days after 10 mg/kg (28 % cleaved by FIG. 24D), IgG quantified by ELISA, 3-fold dilutions (Example 16)
T2 construct: not shown: The carrier of the coated recombinant CTLA4; It is probably the Fc of a CTLA4-Fc, as in the other ELISAs

[10] = biological target: T1, human CTLA4-Fc (R&D Systems, #7268-CT); assay: CTLA4 ELISA (luminescence) after culture of Antibody 2-16 in colon tumor conditioned media; the text gives 100% of molecules cleaved
[11] = biological target: T1, human CTLA4-Fc (R&D Systems, #7268-CT); assay: CTLA4 ELISA (luminescence) after culture of Antibody 2-14 in colon tumor conditioned media; the text gives 100% of molecules cleaved
[12] = biological target: T1, human CTLA4-Fc (R&D Systems, #7268-CT); assay: low density antigen binding ELISA, human CTLA4-Fc coated; after protease digestion
[13] = biological target: T1, human CTLA4-Fc (R&D Systems, #7268-CT); assay: ELISA, human CTLA4-Fc coated; protease +; remark: listed apart in the source
[14] = biological target: T3, muCTLA4hsIgG protein (Abcam) (murine, UniProt P09793 36-161, limits assumed); assay: low density antigen binding ELISA, muCTLA4hsIgG coated; average of three experiments
T3 construct: Bought; also called murine CTLA4; not shown: human IgG part (hsIgG)

[15] = biological target: T4, murine CTLA4-Fc (R&D Systems) (murine, UniProt P09793 36-162); assay: ELISA: plate coated with murine CTLA4-Fc (R&D Systems), detection anti-muKappa-HRP, chemiluminescence (Example 3A)
T4 construct: Bought; also called muCTLA4-hsIgG (R&D Systems); not shown: human IgG Fc part (hsIgG)

[16] = biological target: T1, human CTLA4-Fc (R&D Systems, #7268-CT); assay: ELISA: plate coated with human CTLA4-Fc (R&D Systems), detection anti-huKappa-HRP, chemiluminescence; signal as fraction of the parental antibody's RLU (Example 5)
[17] = biological target: B10; assay: SPR, Biacore T200, 37 C; 9D9 coupled to CM5 chip, peptide as analyte; steady-state model

Chain of CTLA4 on CTLA4 expressing Jurkat cells (P16410 36-223 limits assumed): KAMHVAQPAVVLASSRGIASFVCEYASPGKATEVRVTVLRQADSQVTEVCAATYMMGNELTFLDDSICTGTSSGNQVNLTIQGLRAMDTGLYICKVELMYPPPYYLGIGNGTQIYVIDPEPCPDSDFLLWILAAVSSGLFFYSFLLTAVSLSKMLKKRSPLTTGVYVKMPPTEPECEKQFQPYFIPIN
T1 sequence (P16410 36-162 limits assumed): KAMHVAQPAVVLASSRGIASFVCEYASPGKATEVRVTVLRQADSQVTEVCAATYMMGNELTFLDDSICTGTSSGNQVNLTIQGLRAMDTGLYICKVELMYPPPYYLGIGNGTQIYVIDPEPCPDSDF
T2 sequence (P16410 36-161 limits assumed): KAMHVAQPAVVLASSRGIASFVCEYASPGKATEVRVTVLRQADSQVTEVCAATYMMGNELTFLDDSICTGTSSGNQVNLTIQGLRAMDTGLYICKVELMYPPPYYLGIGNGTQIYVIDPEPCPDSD

In the case of B1, the “EC50 (read off the curve)” value [1] is reported as about 8 nM, the EC50 [2] is reported as 29.4 nM and the EC50 [3] is reported as 29.4 nM.

B2 was tested, and the “EC50 of FcγRIIIa (ADCC) reporter activation, after exposure to protease” value [4] was 10 ng/mL, the “EC50 of FcγRIIIa (ADCC) reporter activation, without protease” value [4] was 19 ng/mL and the EC50 [5] was 24.3 nM. The “EC50 (read off the curve)” value [6] was about 8 nM, the “EC50 (read off the curve)” value [1] was about 7 nM and the EC50 [7] was 17.3 nM.

With B3 the “EC50 (read off the curve)” value [8] was about 10 nM, the “EC50 of FcγRIIIa (ADCC) reporter activation, without protease” value [4] was 33 ng/mL and the EC50 [5] was 39.4 nM. For the same binder, the “EC50 (read off the curve)” value [9] was about 0.02 µg/mL.

For B4, the “EC50 (read off the curve)” value [8] was about 6 nM.

With B5 the “EC50 (read off the curve)” value [10] was about 0.4 nM.

With B6 the EC50 [2] was 33.9 nM and the EC50 [3] was 33.9 nM.

B7 was tested, and the “EC50 of FcγRIIIa (ADCC) reporter activation, after exposure to protease” value [4] was 0.0028 ng/mL, the “EC50 (read off the curve)” value [11] was about 0.4 nM and the EC50 [7] was 0.41 nM.

For B8, the EC50 [12] was 0.57 nM.

In the case of B9, the EC50 [13] is reported as 0.58 nM and the EC50 [12] is reported as 0.58 nM.

In the case of B10, the EC50 [14] is reported as 0.31 nM and the “EC50 (read off the curve)” value [15] is reported as about 0.2 nM.

With B11 the “EC50 (read off the curve)” value [16] was about 0.7 nM.

Binder B12 has a Kd [17] of 11 µM.
